From patent US12331110B2, “Monoclonal antibodies against endotrophin and the use thereof” (THE BOARD OF REGENTS OF THE UNIVERSITY OF TEXAS SYSTEM, priority 2018, dated 2025)

Key:
MDA-MB-231 cells = test: MDA-MB-231 tumor growth in nude mice; type: in vivo
Procedure: FIGS. 6A-D. The antibody effects on MDA-MB-231 cells in vivo. (FIG. 6A) MDA-MB-231 cells (2×10^6 cells) were implanted into nude mice. Then 2.5 mg/kg of cisplatin and 20 mg/kg of ETPmAb4 antibody (twice a week) were injected after 10-days implantation for 5-weeks. Tumor volume was determined by caliper measurement. The insert reflects a simplified analysis of control antibody versus ETPmAb4 with associated statistics. (FIG. 6B) MDA-MB-231 cells (2×10^6 cells) were implanted into nude mice. Treatment was started when the tumor volume was over 30 mm^3. At that point, 2.5 mg/kg of cisplatin and 20 mg/kg of ETPmAb4 antibody (twice weekly) were injected for 5-weeks. Tumor volumes were determined by caliper measurements. The insert reflects a simplified analysis of control antibody versus ETPmAb4 with associated statistics. (FIG. 6C) SKOV3 cells (2×10^6 cells) were implanted into nude mice. Then 2.5 mg/kg of cisplatin and 20 mg/kg of ETPmAb4 antibody (twice weekly) were injected 10-days after implantation for 5-weeks. Tumor volumes were determined by caliper measurements. The insert reflects a simplified analysis of control antibody versus ETPmAb4 with associated statistics. (FIG. 6D) MDA-MB-231 cells (2×10^6 cells) were implanted into nude mice. Then 2.5 mg/kg of cisplatin, 20 mg/kg of ETPmAb4 antibody and 20 mg/kg of humanized ETPmAb4 antibody (twice a week) were injected after 10-days implantation for 5-weeks. Tumor volume was determined by caliper measurement. […]
Animal experiments. […] Tumors were measured twice a week, beginning 10 days after injection, and tumor volume was calculated by length×(width) 2/2 (mm^3).
Analysis of Tumor Progression. Tumor onset was monitored twice weekly by palpation. Tumor sizes were measured using a digital caliper twice weekly and the volumes were calculated as length× width2)/2. […] Animals were sacrificed when the tumor burden visibly affected the host, or when the tumors reached the IACUC pre-determined limit of 20 mm along one axis. […]
After humanization, the binding affinity of hETPmAb4 to endotrophin was measured in Octet RED96. […]

[1] = test system: ETP transfected MCF7 cells; test: ETP transfected MCF7 tumor growth in nude mice; type: in vivo
Procedure: FIGS. 5A-C. Antibody effects on ETP-MCF7 cells in vivo. (FIG. 5A) ETP transfected MCF7 cells (2×10^6 cells) were implanted into nude mice. An estradiol pellet (0.72 mg) was implanted into nude mice. Then (i) 20 mg/kg ETPmAb4, (ii) 10 mg/kg ETPmAb4 with 10 mg/kg control IgG, (iii) 5 mg/kg ETPmAb4 with 15 mg/kg control IgG, (iv) 2 mg/kg ETPmAb4 with 18 mg/kg control IgG, and (v) 20 mg/kg control IgG (twice a week) were injected after 10-days implantation for 5-weeks. Tumor volume was determined by caliper measurement. Data was represented as mean±SD (n=5/group), and *** p<0.0001 by ANOVA followed by Newman-Keuls multiple comparison test. (FIG. 5B) Total RNA was prepared from tumor tissues from ETP transfected MCF7, ETPmAb4 treatment mice. The EMT markers genes Twist, Snail, Cdh2 and Cdh 1 were determined by qRT-PCR, then normalized to GAPDH. E-CAD immunofluorescence staining for tumor tissues from ETP transfected MCF7 and ETPmAb4 treatment tumor. (FIG. 5C) MCF7 and ETP transfected MCF7 cells (2×10^6 cells) were implanted into nude mice. An estradiol pellet (0.72 mg) was implanted into nude mice. Then 20 mg/kg of antibody ETPmAb4 (twice a week), and 2.5 mg/kg of cisplatin (once a week) were injected after 10-days implantation for 6-weeks. Tumor volume was determined by caliper measurement. Data was represented as mean±SD (n=5/group), and *** p<0.0001 by ANOVA followed by Newman-Keuls multiple comparison test.
Animal experiments. NU/NU nude female mice were purchased from Charles River (Crl: NU-Foxnlnu; Strain Code 088 (Homozygous)). Breast cancer cells (2×10^6 cells) were implanted by intraductal injection. All cell lines were mixed on ice with 1×PBS and Matrigel. Then 100 μL of mixture was injected into mice. Tumors were measured twice a week, beginning 10 days after injection, and tumor volume was calculated by length×(width) 2/2 (mm^3).
Analysis of Tumor Progression. Tumor onset was monitored twice weekly by palpation. Tumor sizes were measured using a digital caliper twice weekly and the volumes were calculated as length× width2)/2. Inguinal tumors were weighted to determine tumor burden. Animals were sacrificed when the tumor burden visibly affected the host, or when the tumors reached the IACUC pre-determined limit of 20 mm along one axis.
As a next step, whether the anti-endotrophin antibodies effectively curb the aggressive tumor growth observed in endotrophin overexpressing MCF-7 cells was examined. To boost the growth rate of the tumor cells, these assays were performed in the presence of estradiol pellets. Cells (2×10^6 cells) were injected into nude mice and their tumor growth was monitored over time, based on a twice weekly injection of either a control monoclonal preparation, or ETPmAb4; in all cases, a total of 20 mg/kg of antibody was used. The dose dependence was tested by either injecting 20 mg/kg of control antibody, 20 mg/kg of ETPmAb4, or a mixture of the two with decreasing levels of control antibody mixed with increasing levels of ETPmAb4.
To test this, MCF7 cells were used with or without endotrophin overexpression, and the cells were transplanted into nude mice, in the presence of estradiol pellets (FIG. 5C). […] As expected, MCF7 cells harboring an excess in endotrophin grew very aggressively (FIG. 5C; red line).

B1: ETP-mAb4: rabbit monoclonal anti-human endotrophin antibody selected for further study; VH SEQ ID NO: 125, VL SEQ ID NO: 126 (antibody, V domains shown)
VH: SSRVKESGGDLVKPGASLTLTCKASGFSFSSGYYICWVRQAPGKGLEWIACIYGGNNNPYYANWVNGRFTTSKTSSTTVTLQMTNLTGADTATYFCARKDINIGGAYELWGPGTLVTISS
VL: ELVMTQTPASVSEPVGGTVTINCQASQSISSSYLSWYQQKPGQPPKLLIYKASTLASGVPSRFKGSGSGTQFSLTISDLECADAATYYCQYSDWANSYGNAFGGGTEVVVK
In the case of B1, the “lesion growth, combination with cisplatinum” value (MDA-MB-231 cells; 20 mg/kg antibody plus 2.5 mg/kg cisplatin) is reported as “essentially inhibited lesion growth”, the “rate of tumor growth, antibody alone” value (MDA-MB-231 cells; 20 mg/kg twice a week) is reported as “significantly reduced the rate of tumor growth” and the “lesion growth, combination with cisplatinum” value ([1]; 20 mg/kg ETPmAb4 twice a week plus 2.5 mg/kg cisplatin once a week) is reported as “lesion growth was reduced down to essentially baseline”. The “tumor growth at the highest dose” value ([1]; 20 mg/kg twice a week, estradiol pellet) was “almost completely curbing the aggressive tumor growth”, the “rate of tumor growth” value ([1]; 2-20 mg/kg twice a week, estradiol pellet, vs control IgG) was “significantly reduced in a dose-dependent fashion the rate of tumor growth over time” and the “EMT signature in tumor tissue (Twist, Snail, Cdh2, Cdh1 qPCR)” value ([1]; antibody-treated tumors) was “reduced EMT signature”.
